In patent US12290533B2, “Extracellular vesicles and methods of using” (NUtech Ventures, priority 2018, dated 2025):

System: human umbilical vein endothelial cells (HUVEC)
Test: Uptake of fluorophore-labeled cow's milk exosomes into HUVECs
Assay type: cell-based
Conditions: exosomal surface proteins removed by proteinase K

B1: proteinase K: non-specific protease used to remove surface proteins of exosomes or cells (protein, UniProt P06873 106-384, looked up)
Proteinase K: AAQTNAPWGLARISSTSPGTSTYYYDESAGQGSCVYVIDTGIEASHPEFEGRAQMVKTYYYSSRDGNGHGTHCAGTVGSRTYGVAKKTQLFGVKVLDDNGSGQYSTIIAGMDFVASDKNNRNCPKGVVASLSLGGGYSSSVNSAAARLQSSGVMVAVAAGNNNADARNYSPASEPSVCTVGASDRYDRRSSFSNYGSVLDIFGPGTSILSTWIGGSTRSISGTSMATPHVAGLAAYLMTLGKTTAASACRYIADTANKGDLSNIPFGTVNLLAYNNYQA
exosome uptake: ~50 % of controls
